Our source for the protein stability index values is the supplement of paper PMC10724198.

± gives the standard deviation of the averaged measurements.
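Further: PSI is a weighted mean of sequencing reads over stability bins, variants kept only with over 10 reads, mCherry proximal and sfGFP distal, peptide attached via GGGS linker.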

The subject of this data set is Saccharomyces cerevisiae. In words: protein stability index of tFT-peptide fusion (C-terminal peptide) (PSI (0-1 scale)); higher = more stable (slower turnover). The settings on record: genetic background: wild type; temperature: 30 C.
As to PWRPRMAGVDYR, the protein stability index stood at 0.867 ± 0.13.
For the sequence PWTSSTTSRFPS, the protein stability index was determined as 0.727 ± 0.033.
Sequence PYHVPTPRATNR yielded a protein stability index of 0.659 ± 0.026.
Next, PYTHDRTTSPVF: 0.762 ± 0.12; PYWVPSKSSLSP: 0.742 ± 0.068.
To QAGALTTIPTFA belongs 0.616 ± 0.019.
Turning to QAYGFEDISFSI, the protein stability index was 0.808 ± 0.076.
To QCYNGSSGVSNL belongs 0.676 ± 0.028.
In turn, QDSETYSNEAGL showed a protein stability index of 0.669 ± 0.031.
To QFFVVLVSHEGR belongs 0.63 ± 0.011; to QFRCAIFRLSFV, 0.613 ± 0.023.
With QFTFPPGTSAPV, the protein stability index came to 0.66 ± 0.032.
As to QGGGGGGVCGMV, the protein stability index amounted to 0.721 ± 0.011.
Consider QGLSFVSVSPRP, for which the protein stability index was found to be 0.795 ± 0.029.
QGPPPTPASHGP: the protein stability index worked out at 0.672 ± 0.026.
In the case of QGRPPADRATAV, the protein stability index turned out to be 0.755 ± 0.029.
QGSAGRHVRTNL displayed a protein stability index of 0.701 ± 0.06.
The sequence QIISSVFEATSY came in with a protein stability index of 0.606 ± 0.037.
To QKAQLISQVNTG belongs 0.6682 ± 0.0065.
Turning to QKDLVGSKSEYE, the protein stability index stood at 0.735 ± 0.058.
Next, QKGGGGEVGAEG: 0.699 ± 0.066; QKIIKKIQTIVD: 0.697 ± 0.027; QKKKKKKKRKKT: 0.59 ± 0.062.
Next, QKKKKRKDKRTK: 0.7067 ± 0.0053; QKPKDKKKRTKE: 0.679 ± 0.05.
As to QLETAIEEKNNE, the protein stability index worked out at 0.704 ± 0.0087.
Sequence QLFAYFLGAVIL had a protein stability index of 0.611 ± 0.023.
For the sequence QLGRVSRLVGVC, the protein stability index came out at 0.537 ± 0.0081.
QLLCLFSIPRSA came in with a protein stability index of 0.7241 ± 0.0043.
As to QLPALPPLHSSP, the protein stability index is 0.6982 ± 0.0022.
Next, QLVCCAKCGAVG: 0.665 ± 0.035.
As to QLVSNNCSLVMC, the protein stability index came out at 0.532 ± 0.02.
To QMGGGGEVGAEG belongs 0.724 ± 0.009; to QMSAATLLFSRL, 0.734 ± 0.029; to QMTSRVPIGRLY, 0.696 ± 0.0035.
For QNKKKEKKQEIQ, the protein stability index is 0.7 ± 0.042.
As for QPGPPPRPHVQP, the protein stability index was determined as 0.676 ± 0.048.
Next, QPGTRRNNHIQV: 0.704 ± 0.026.
Next, QPLSFAYMPPLS: 0.653 ± 0.033; QPRVEYSSYWAV: 0.644 ± 0.034; QQKKKTKGNNEV: 0.661 ± 0.065.
Sequence QQKKPIRKELRN had a protein stability index of 0.702 ± 0.053.
In turn, QREKTRSWDIET showed a protein stability index of 0.686 ± 0.041.
Regarding QREYHENKIKYI, the protein stability index came out at 0.563 ± 0.066.
To QRKYTLCVRPFP belongs 0.697 ± 0.037; to QRSPNRISPADY, 0.798 ± 0.11.
For QRVIELVLISNM, the protein stability index amounted to 0.539 ± 0.043.
In the case of QRWTAGTQIRPV, the protein stability index came to 0.706 ± 0.0086.
Regarding QSKANIVEEIWI, the protein stability index is 0.688 ± 0.02.
For QSPPDDRPPPHP, the protein stability index is 0.676 ± 0.029.
With QSPRLTSGPQPL, the protein stability index amounted to 0.652 ± 0.022.
Regarding QSQGTRLAPVTR, the protein stability index came out at 0.729 ± 0.068.
QTKKKLTQSQRT registered a protein stability index of 0.694 ± 0.019.
QTRDFRRASYAP yielded a protein stability index of 0.646 ± 0.019.
Consider QTVPGKNLDGDL, for which the protein stability index amounted to 0.714 ± 0.013.
Next, QVFITGHQLCVM: 0.535 ± 0.0064; QVGPSPCHPFTL: 0.684 ± 0.0091; QVWLLRPAPARV: 0.598 ± 0.12.
Next, QYQDRHIDRSGR: 0.657 ± 0.078; RAARGQQGGPVA: 0.651 ± 0.041.
To RADIRYCNCRGQ belongs 0.607 ± 0.045; to RADLLQRGGDRI, 0.677 ± 0.093.
Sequence RAEGGDSGVAAL displayed a protein stability index of 0.703 ± 0.011.
RAFASLALAILP gave a protein stability index of 0.623 ± 0.038.
To RAFEGGRHCRAG belongs 0.67 ± 0.049.
For RAGALYLGICDT, the protein stability index was 0.738 ± 0.069.
RAGCWFAGYSRV returned a protein stability index of 0.721 ± 0.078.
RAGVFLPSGVAI displayed a protein stability index of 0.663 ± 0.011.
To RAGVRWGGGGGG belongs 0.67 ± 0.014; to RAHLVSAPPQNF, 0.7074 ± 0.0033; to RAHSGSTCCGAQ, 0.698 ± 0.04.
The sequence RAMWAGKGGDGW registered a protein stability index of 0.738 ± 0.086.
Turning to RAPDHRPGRLQK, the protein stability index came out at 0.724 ± 0.013.
The sequence RAPGPGQIRLVQ gave a protein stability index of 0.72 ± 0.035.
On to RARCFGGFCAIP, for which the protein stability index was found to be 0.724 ± 0.088.
The sequence RARHDGWRHLYE showed a protein stability index of 0.707 ± 0.055.
To RASLTPSDHLFF belongs 0.766 ± 0.02; to RASPPPPPPPPP, 0.658 ± 0.045; to RASPTTILCKRQ, 0.678 ± 0.025.
For RAVLSNRVEERI, the protein stability index was 0.696 ± 0.022.
As for RAYATPIPRSAI, the protein stability index stood at 0.655 ± 0.046.
To RCCGLWVDGFLL belongs 0.743 ± 0.045; to RCCLDLLIFPCS, 0.735 ± 0.15; to RCERKTGHHYRT, 0.637 ± 0.072.
In the case of RCETHKDHESNE, the protein stability index was found to be 0.725 ± 0.014.
The sequence RCRGPVYIPPGT had a protein stability index of 0.654 ± 0.027.
Take RCRGTEGWLDSG: the protein stability index is 0.63 ± 0.009.
Next, RDAPLGRRLRPV: 0.678 ± 0.021; RDGDVRTLMGWD: 0.732 ± 0.037.
In the case of RDGSNSNGKKKK, the protein stability index was 0.6 ± 0.051.
Regarding RDLSEGRSPLGI, the protein stability index is 0.661 ± 0.081.
As for RDPSIVDHTVVT, the protein stability index is 0.735 ± 0.041.
Next, RDSLGGRSMHGW: 0.682 ± 0.029; RDVWPFTGKRAL: 0.672 ± 0.014.
REEREISGNLLV gave a protein stability index of 0.7899 ± 0.0075.
Consider REGKGREQGRKK, for which the protein stability index is 0.616 ± 0.053.
Sequence REGKIVNNKNEN gave a protein stability index of 0.687 ± 0.077.
With REGVELTRPVTC, the protein stability index was found to be 0.696 ± 0.041.
For REKDMIKSGIKS, the protein stability index came out at 0.724 ± 0.02.
To REMDDRLEQSVP belongs 0.743 ± 0.017; to REPPFFRLSPQV, 0.722 ± 0.042; to REQKTKDKKKRQ, 0.703 ± 0.024.
RERNNISVKGKL yielded a protein stability index of 0.679 ± 0.049.
RERPHSDYLACH showed a protein stability index of 0.691 ± 0.026.
Sequence RESTKNETSGKK gave a protein stability index of 0.632 ± 0.04.
REVIGFLSYWKG came in with a protein stability index of 0.711 ± 0.14.
As for RFCRAFSGALSR, the protein stability index worked out at 0.805 ± 0.021.
Consider RFDGLTTALDSV, for which the protein stability index came out at 0.669 ± 0.04.
For RFFPPPARPSPF, the protein stability index amounted to 0.732 ± 0.025.
The sequence RFLMGYEVNCAV gave a protein stability index of 0.548 ± 0.015.
In the case of RFMAFGDKEILR, the protein stability index was found to be 0.662 ± 0.033.
Regarding RFPLCLHLPLLL, the protein stability index is 0.55 ± 0.012.
The sequence RFPLSLRIPLPK came in with a protein stability index of 0.63 ± 0.034.
RFSPARPASPPP had a protein stability index of 0.687 ± 0.036.
RFWGWCSAVLSS showed a protein stability index of 0.622 ± 0.056.
RGAHVTRPGTRD registered a protein stability index of 0.66 ± 0.034.
